Test results reported in publication PMC9733292 (Journal of Translational Medicine, 2022).

B1: scFv OKT3 wild-type (scFv, V domains shown)
VH: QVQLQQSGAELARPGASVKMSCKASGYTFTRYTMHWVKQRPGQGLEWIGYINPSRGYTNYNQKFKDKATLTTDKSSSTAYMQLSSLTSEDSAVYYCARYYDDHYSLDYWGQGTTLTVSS
VL: QIVLTQSPAIMSASPGEKVTMTCSASSSVSYMNWYQQKSGTSPKRWIYDTSKLASGVPAHFRGSGSGTSYSLTISGMEAEDAATYYCQQWSSNPFTFGSGTKLEIN
notes: also called OKT3 single chain variable fragment
B2: scFv OKT3 E129AzK (scFv, V domains shown)
VH: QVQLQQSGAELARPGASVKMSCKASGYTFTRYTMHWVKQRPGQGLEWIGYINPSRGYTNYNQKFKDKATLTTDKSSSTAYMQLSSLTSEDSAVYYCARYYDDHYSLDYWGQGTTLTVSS
VL: B1 VL
notes: also called scFv OKT3 E129AzK variant

Molecular target: T1, CD3 receptor (CD3ε subunit of the T cell receptor complex) (Homo sapiens, UniProt P07766)
T1 construct: also called CD3 antigen; CD3 receptors
T1 sequence (P07766 23-207, one chain of several): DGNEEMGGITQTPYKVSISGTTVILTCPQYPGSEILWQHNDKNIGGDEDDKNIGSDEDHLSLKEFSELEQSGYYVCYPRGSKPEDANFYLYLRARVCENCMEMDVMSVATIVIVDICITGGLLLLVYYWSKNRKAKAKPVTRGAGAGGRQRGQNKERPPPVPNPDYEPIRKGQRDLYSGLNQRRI
Assay: flow cytometry on cells
Conditions: one partner purified

Binder	binding result
B1	binds
B2	binds
